This note sets out measurements from US20240301052A1 (LANOVA MEDICINES DEVELOPMENT, published 2024).

Changes are numbered by the printed parent chain. Where two headings read alike, the source gives them in different places.

The target in test [1] is T1, human SLC34A2 (human, UniProt O95436 1-690).
T1 construct: whole, on cells; also called human solute carrier 34 A2; NaPi2b
T1 sequence (looked up): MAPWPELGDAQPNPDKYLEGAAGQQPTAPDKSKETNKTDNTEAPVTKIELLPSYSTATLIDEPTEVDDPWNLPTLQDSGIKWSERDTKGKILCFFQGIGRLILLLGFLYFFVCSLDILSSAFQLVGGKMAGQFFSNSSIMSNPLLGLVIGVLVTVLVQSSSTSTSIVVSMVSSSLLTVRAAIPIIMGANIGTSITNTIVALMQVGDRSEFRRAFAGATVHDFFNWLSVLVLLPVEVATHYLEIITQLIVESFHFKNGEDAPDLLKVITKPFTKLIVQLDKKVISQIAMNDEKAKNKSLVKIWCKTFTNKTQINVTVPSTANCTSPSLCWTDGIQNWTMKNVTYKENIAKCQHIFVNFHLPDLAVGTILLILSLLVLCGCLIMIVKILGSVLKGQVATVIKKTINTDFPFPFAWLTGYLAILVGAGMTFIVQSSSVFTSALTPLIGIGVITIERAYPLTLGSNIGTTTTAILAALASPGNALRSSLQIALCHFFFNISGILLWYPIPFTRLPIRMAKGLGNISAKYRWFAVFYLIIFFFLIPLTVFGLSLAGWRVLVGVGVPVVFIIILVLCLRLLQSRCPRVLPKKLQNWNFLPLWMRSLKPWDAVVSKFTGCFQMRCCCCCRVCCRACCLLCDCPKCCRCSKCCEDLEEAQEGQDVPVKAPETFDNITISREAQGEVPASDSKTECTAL
Nature of the test: FACS, RMG-1 cells. The gist of the method:
(§1)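 Cell-surface binding by flow cytometry: hu Abs on SLC34A2-expressing cells, 60 min at 4° C.; 2× FACS buffer wash; fluorescent-conjugated secondary 30 min at 4° C.; 2× wash, then acquisition.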

In test [2] the target is T1, human SLC34A2. Nature of the test: FACS, OVCAR3 cells. The protocol: The binding of these humanized antibodies to OVCAR3 cells was evaluated as described above, and the results are shown in FIG. 12A-D and Tables 16A-D.
Background: In flow cytometry, cells or beads pass a laser one at a time.

In test [3] the target is T1, human SLC34A2. As to the kind of experiment: FACS, OVCAR3 cells. The gist of the method: as §1
The source holds these as a separate data set.

For test [4], the target named is T2, rat SLC34A2 (rat, UniProt Q9JJ09 1-695).
T2 construct: whole, on cells
T2 sequence (looked up): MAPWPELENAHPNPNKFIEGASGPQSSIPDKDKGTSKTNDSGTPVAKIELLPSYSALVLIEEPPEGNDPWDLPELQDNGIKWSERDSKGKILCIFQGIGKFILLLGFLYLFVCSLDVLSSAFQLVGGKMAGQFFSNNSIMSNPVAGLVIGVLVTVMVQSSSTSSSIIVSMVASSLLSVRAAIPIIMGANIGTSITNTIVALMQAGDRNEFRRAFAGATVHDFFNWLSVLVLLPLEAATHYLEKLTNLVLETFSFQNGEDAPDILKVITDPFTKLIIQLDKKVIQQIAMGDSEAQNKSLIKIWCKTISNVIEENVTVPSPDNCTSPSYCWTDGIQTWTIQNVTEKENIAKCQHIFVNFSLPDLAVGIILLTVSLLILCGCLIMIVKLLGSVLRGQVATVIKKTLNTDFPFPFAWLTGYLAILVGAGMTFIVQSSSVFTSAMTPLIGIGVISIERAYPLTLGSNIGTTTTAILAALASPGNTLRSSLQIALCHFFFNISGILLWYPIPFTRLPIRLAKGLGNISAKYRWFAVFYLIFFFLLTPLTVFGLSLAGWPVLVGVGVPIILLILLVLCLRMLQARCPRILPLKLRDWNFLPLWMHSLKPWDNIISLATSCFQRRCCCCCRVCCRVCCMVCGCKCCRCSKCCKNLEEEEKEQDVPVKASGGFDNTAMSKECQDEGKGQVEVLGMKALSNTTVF
Nature of the test: FACS, HEK293/Rat SLC34A2 cells.

For test [5], the target named is T3, mouse SLC34A2 (mouse, UniProt Q9DBP0 1-697).
T3 construct: whole, on cells
T3 sequence (looked up): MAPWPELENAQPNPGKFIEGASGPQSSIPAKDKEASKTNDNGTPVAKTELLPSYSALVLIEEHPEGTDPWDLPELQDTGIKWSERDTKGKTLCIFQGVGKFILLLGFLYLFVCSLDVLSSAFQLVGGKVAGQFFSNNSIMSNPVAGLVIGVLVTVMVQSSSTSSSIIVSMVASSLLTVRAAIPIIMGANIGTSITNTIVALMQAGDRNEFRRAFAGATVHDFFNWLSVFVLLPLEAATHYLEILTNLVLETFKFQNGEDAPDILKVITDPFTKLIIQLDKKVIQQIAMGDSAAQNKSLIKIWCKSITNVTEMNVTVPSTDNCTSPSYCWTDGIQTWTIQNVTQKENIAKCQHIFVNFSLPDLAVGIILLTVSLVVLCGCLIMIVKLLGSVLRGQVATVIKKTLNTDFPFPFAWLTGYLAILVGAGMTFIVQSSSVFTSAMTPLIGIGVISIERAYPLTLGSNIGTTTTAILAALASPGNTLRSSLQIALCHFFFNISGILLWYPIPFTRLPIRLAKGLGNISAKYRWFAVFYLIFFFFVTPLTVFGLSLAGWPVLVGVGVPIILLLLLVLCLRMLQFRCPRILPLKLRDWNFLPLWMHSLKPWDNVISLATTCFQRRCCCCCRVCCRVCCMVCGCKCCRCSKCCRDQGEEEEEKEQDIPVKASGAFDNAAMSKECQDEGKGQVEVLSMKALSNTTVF
As to the kind of experiment: FACS, HEK293/Mouse SLC34A2 cells.

In test [6] the target is T1, human SLC34A2. As to the kind of experiment: FACS, HEK293/human SLC34A2 cells. The gist of the method:
as §1

The next test has as its target T4, Rhesus SLC34A2 (Rhesus, UniProt F7HDA3 1-690).
T4 construct: whole, on cells
T4 sequence: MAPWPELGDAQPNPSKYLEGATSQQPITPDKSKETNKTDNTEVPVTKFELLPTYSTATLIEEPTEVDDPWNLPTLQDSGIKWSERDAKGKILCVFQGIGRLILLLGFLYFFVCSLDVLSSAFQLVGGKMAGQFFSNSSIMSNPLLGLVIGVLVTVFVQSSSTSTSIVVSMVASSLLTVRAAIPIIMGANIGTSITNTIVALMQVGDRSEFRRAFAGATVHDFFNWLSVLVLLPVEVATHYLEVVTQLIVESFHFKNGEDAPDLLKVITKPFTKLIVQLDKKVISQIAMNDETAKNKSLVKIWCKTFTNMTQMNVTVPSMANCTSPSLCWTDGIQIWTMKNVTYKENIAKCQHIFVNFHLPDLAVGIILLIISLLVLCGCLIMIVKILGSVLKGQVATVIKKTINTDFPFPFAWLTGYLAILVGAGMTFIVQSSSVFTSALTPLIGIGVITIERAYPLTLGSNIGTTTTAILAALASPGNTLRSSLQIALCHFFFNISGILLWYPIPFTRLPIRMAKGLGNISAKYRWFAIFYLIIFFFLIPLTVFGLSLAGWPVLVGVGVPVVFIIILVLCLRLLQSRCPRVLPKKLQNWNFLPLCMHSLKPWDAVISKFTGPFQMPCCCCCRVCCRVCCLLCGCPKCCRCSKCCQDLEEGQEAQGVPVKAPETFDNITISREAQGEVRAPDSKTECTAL
Nature of the test: FACS, HEK293/Rhesus SLC34A2 cells.

Test [7] has as its target T1, human SLC34A2. As to the kind of experiment: cell-based or functional assay.
Test [8] addresses T1, human SLC34A2. As to the kind of experiment: cell-based or functional assay. This is another data set of the same source.
In test [9] the target is T2, rat SLC34A2. As to the kind of experiment: FACS, HEK293/Rat SLC34A2 cells. The source holds these as a separate data set.
In test [10] the target is T1, human SLC34A2. Nature of the test: FACS, MDAH2774 cells.
Test [11] concerns the target T3, mouse SLC34A2. Nature of the test: FACS, HEK293/Mouse SLC34A2 cells. The source holds these as a separate data set.
The target of test [12] is T1, human SLC34A2. As to the kind of experiment: FACS, HEK293/human SLC34A2 cells.
The target of test [13] is Cynomolgus SLC34A2 (Cynomolgus). As to the kind of experiment: FACS, cells expressing Cynomolgus SLC34A2.

B1: 62G10E4G8.p3.z8 hIgG1 (antibody, V domains shown)
VH: QVQLVQSGAEVKKPGASVKVSCKASGYTFPSYITHWVRQAPGQGLEWIGAIYPGNADTSYIQKFKGRVTMTADKSTSTVYMELSSLRSEDTAVYYCARGTYGTSAWFTYWGQGTLVTVSS
VL: EIVLTQSPATLSASPGERATLSCRARQNIGNNLYWYQQKPGQSPRLLIKYASQSISGIPSRFSGSGSGTDFTLTISSVQSEDFAVYFCQQSFSWPLTFGAGTKLEIK
notes: humanized hIgG1
As to B1, the EC50 (usually the concentration giving half of the maximal effect) stood at 11.1 nM with human SLC34A2 [1]; 8.61 nM in the test with human SLC34A2 [2]; 8.61 nM in the test with human SLC34A2 [3]; 4.42 nM with human SLC34A2 [6]; 2.5 nM in the test with Rhesus SLC34A2. The Top with human SLC34A2 [1] was found to be 10900 MFI; in the test with human SLC34A2 [6] it was 31500 MFI. Also, the “Top (MFI)” value with human SLC34A2 [2] amounted to 30000 MFI; with Rhesus SLC34A2, 12200 MFI. The binding result in the test with rat SLC34A2 [4] and in the test with mouse SLC34A2 [5] was “binds” each time.

B2: 62G10E4G8.p3.z11 hIgG1 (antibody, V domains shown)
VH: B1 VH with R38K, M70L, V79A
VL: B1 VL with A13V, V78L, A100Q
notes: humanized hIgG1
Consider B2, for which the EC50 in the test with human SLC34A2 [1] was 11.4 nM; with human SLC34A2 [2], 4.32 nM; in the test with human SLC34A2 [3] it was 4.32 nM; in the test with human SLC34A2 [6], 5.07 nM; with Rhesus SLC34A2, 3.4 nM. In addition, the figures for the Top with human SLC34A2 [1] and with human SLC34A2 [6] were 11300 MFI and 31900 MFI, respectively. The “Top (MFI)” value is 28200 MFI with human SLC34A2 [2] and 14700 MFI in the test with Rhesus SLC34A2. Also, in the test with human SLC34A2 [7], the “ADCC reporter EC50” value stood at 3.78 nM. Moreover, the “ADCC reporter Top (MFI)” value with human SLC34A2 [7] stood at 116000 MFI. Also, the binding result with rat SLC34A2 [4] and with mouse SLC34A2 [5] was “binds” throughout.

B3: RG-7599 (antibody, INN chains, looked up, V domains shown)
VH: EVQLVESGGGLVQPGGSLRLSCAASGFSFSDFAMSWVRQAPGKGLEWVATIGRVAFHTYYPDSMKGRFTISRDNSKNTLYLQMNSLRAEDTAVYYCARHRGFDVGHFDFWGQGTLVTVSS
VL: DIQMTQSPSSLSASVGDRVTITCRSSETLVHSSGNTYLEWYQQKPGKAPKLLIYRVSNRFSGVPSRFSGSGSGTDFTLTISSLQPEDFATYYCFQGSFNPLTFGQGTKVEIK
modifications: vedotin (MMAE) payload
In the test with human SLC34A2 [8], B3 returned an ADCC reporter EC50 of 1.31 nM, an ADCC reporter Top (MFI) of 15700 MFI, an ADCC-HEK293 of 2.02 nM and an ADCC-OVCAR3 of 2.97 nM. Besides, in the test with human SLC34A2 [8], the Cytotoxic Effect - MDAH-2774 turned out to be 6.83 nM and the Cytotoxic Effect - OVCAR3 was 0.325 nM. Also, the EC50 in the test with rat SLC34A2 [9] was determined as 715 nM. The molecule also gave an EC50 in the test with human SLC34A2 [10] of 8.74 nM. In addition, the EC50 in the test with mouse SLC34A2 [11] worked out at 412 nM. Besides, the EC50 with human SLC34A2 [12] worked out at 8.25 nM. In test [13], this molecule registered an EC50 of 1080 nM.
